According to paper PMC4158885 (The EMBO Journal, 2014):

Biological target: T1, ctPan2 Δ343–352 (PID deletion in full-length ctPan2) (Chaetomium thermophilum, UniProt G0SAK8 1-1170, Δ343–352)
T1 sequence (looked up): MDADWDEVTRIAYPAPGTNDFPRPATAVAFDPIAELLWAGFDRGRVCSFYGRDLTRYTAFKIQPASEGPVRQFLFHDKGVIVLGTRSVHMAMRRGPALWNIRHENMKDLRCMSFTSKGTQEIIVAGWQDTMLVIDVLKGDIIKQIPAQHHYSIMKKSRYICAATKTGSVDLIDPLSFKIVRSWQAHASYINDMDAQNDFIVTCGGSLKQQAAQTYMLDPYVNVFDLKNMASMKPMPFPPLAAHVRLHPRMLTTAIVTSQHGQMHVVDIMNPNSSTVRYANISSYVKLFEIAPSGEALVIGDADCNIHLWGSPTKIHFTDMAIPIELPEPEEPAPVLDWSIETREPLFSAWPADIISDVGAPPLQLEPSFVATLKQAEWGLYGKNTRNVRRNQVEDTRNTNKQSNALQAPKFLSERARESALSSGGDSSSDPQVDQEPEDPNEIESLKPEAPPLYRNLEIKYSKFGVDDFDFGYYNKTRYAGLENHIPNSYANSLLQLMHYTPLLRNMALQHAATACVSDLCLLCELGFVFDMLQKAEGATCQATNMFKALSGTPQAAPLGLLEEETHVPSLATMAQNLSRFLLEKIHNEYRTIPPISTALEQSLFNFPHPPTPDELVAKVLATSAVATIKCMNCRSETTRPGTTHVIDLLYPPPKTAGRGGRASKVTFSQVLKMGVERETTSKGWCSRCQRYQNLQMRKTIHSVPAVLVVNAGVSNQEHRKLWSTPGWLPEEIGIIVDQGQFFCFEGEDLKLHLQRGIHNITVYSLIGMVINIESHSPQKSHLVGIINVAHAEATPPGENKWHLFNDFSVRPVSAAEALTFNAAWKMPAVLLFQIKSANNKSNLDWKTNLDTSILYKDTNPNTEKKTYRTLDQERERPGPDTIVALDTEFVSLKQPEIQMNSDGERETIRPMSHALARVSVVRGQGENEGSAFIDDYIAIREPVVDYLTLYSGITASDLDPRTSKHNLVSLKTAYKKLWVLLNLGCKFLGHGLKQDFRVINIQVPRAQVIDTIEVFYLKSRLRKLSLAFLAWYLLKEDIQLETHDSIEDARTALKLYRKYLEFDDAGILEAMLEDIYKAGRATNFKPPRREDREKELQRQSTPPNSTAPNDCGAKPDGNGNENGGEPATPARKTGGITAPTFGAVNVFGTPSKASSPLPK
Test: SEC; separately purified ctPan2 constructs and ctPan3 PKC dimer mixed 1:1 at 1 μM, 15 min at room temperature; Superdex 200 Increase 3.2/300 in 20 mM Tris pH 8.0, 500 mM NaCl, 2 mM TCEP; fractions on SDS–PAGE
Details: both partners purified

binding result: binds
B1: ctPan3 pseudokinase/C-terminal domain (PKC, residues 205–640), purified from E. coli (domain or fragment, Chaetomium thermophilum, UniProt G0S0Y3 205-640, looked up)
chain: RQELQPWQRATYDFFMPQNLREDLQKKQFATLQVIPNSGLPQLEHWHSLVPLDTSNRKNTSCFGYPSWVYKAQNSRNGRHYALRRLEGYRLTNEKAILNVMKDWKKIKNASIVTIHEVFTTREFGDSSLIFAYDFHPLSKTLQEHHFQPIHGNRYRPPPAVPENTIWGYICQIANALKTIHSNRLAARCLEPSKIILTDINRIRLSACAILDVVQFGMNSRSVVELQQEDFVKFGKLILSLATGTLPAHLNNIPAALETLGNKYSANLKSAVNWLLDTSSGETKTIEHFMTGIASQMTTFFDLALQDNDEKLFHLAREVENGRIARSLMKLLTILERGDYDGVPSWSETGDRYQLKLFRDYVFHRVDADGKPNLSIGHMLTCMSKLEAGVDENILLTSRDNETVFVLSYRELRQMYDRAFNELVKASKTGAPGANT
notes: Pan3, Chaetomium thermophilum, pseudokinase (242-497), coiled coil (499-538) and C-terminal domain (555-640), construct residues 205-640; The crystals of ctPan3 PKC alone (PDB 4CYI) were of Se-Met-labelled protein; also called ctPan3 PKC; ctPan3 PKC dimer; source: E. coli, purified (glutathione Sepharose)
